From patent US20240400686A1 (CITY OF HOPE, published 2024)
Positions count from the first letter of the chain named. Names and notes keep the numbering of the source. Like-named read-outs stand apart in the source and are kept apart here. Values belong to the binder of their own block, whether it stands above or below them. Where no end group is shown, it is not given here. [ ]: non-standard residue; d: D form. pGlu = O=C1CC[C@@H](C(=O)O)N1

Columns and labels:
[1] = biological target: T1, recombinant human CD3epsilon/CD3gamma extracellular domain fused with human IgA1.Fc (human); assay: SPR, Biacore T200: human CD3-IgA immobilised on a CM5 chip, antibody as analyte
T1 construct: also called human CD3e/CD3g proteins; human CD3 proteins
Protocol: Binding affinities for the different antibodies of interest were measured by surface plasmon resonance (SPR), using a Biacore T200 (GE Healthcare). Human CD3-IgA was immobilized to 200 RU on a CM5 (GE Life Sciences) chip using NHS chemistry. Analytes (CD3 antibodies) were diluted 2× in concentrations (from 12.5 nM to 0.125 nM) and flown over chip at a flow rate of 30 µl/min with HBS-EP+ buffer. Data were analyzed using Biacore T200 Evaluation software v3.0.

Cyno CD3εδ = Cyno CD3εδ (cynomolgus monkey); assay: SPR, sensorgrams at 3-100 nM; set-up not given
Cyno CD3εδ (cynomolgus monkey), sequence (Q95LI5 22-117, stated change not applied, chain 1 of 2): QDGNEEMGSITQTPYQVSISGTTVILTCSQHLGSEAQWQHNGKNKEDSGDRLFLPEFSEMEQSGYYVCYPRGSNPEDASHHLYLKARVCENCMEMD
Cyno CD3εδ (cynomolgus monkey), sequence (Q95LI8 22-105, stated change not applied, chain 2 of 2, further chain): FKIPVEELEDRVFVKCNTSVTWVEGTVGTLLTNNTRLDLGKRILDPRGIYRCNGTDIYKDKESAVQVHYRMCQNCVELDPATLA

[2] = biological target: T2, CD3 epsilon N-terminal peptide (SEQ ID NO:13) (human and cynomolgus monkey (first …)); assay: SPR on a CD3 peptide, concentration series 3-300 nM (sensorgrams in FIG. 25B)
T2 construct: also called CD3 peptide; CD3 epsilon peptide
T2 peptide: [pGlu]DGNEEMGGITQTPYK

[3] = biological target: T2, CD3 epsilon N-terminal peptide (SEQ ID …); assay: SPR on a CD3 peptide, concentration series 3-300 nM
[4] = biological target: T2, CD3 epsilon N-terminal peptide (SEQ ID …); assay: as above
[5] = biological target: T2, CD3 epsilon N-terminal peptide (SEQ ID …); assay: as above
[6] = biological target: T2, CD3 epsilon N-terminal peptide (SEQ ID …); assay: SPR on a CD3 peptide, concentration series 3-300 nM (sensorgrams in FIG. 25A)

B2: mouse antibody 26H8 (antibody, V domains shown)
VH: QVQLQQSGPELVKPGASVRMSCKASGYTFTNYYIHWVRQRPGQGLEWIGWIYCGDGSTKFNEQFKDRTTLTADHSSSTAYMLLSSLTSEDSAIYFCARDWAGSYFFDFWGQGTTLTVSS
VL: DIVMSQSPSSLAVSAGEKVTMSCKSSQSLLNSRTRKNYLAWYQQKPGQSPKLLIYWASTRESGVPDRFTGSGSGTDFTLTISSVQAEDLAVYYCKQSYILRTFGGGTKLEIK
notes: Tested as mouse hybridoma antibody (culture supernatant or mAb); also called Clone 26H8; 261H8
koff [1]: 0.00062 s⁻¹ | kon [1]: 2.3e+06 M⁻¹ s⁻¹

B3: humanized 26H8 Fab (Fab, V domains shown)
VH: QVQLQESGPGLVKPSETLSLTCTASGYTFTNYYIHWVRQSPGKGLEWIGWIYCGDGSTKFNEQFKDRTTLSADHSKTQASLKLSSVTAADTAIYFCARDWAGSYFFDFWGQGTMVTVSS
VL: DIQMTQSPSSLSASVGDRVTITCKSSQSLLNSRTRKNYLAWYQQKPGKAPKLLIYWASTRESGVPSRFSGSGSGTDFTFTISSLQPEDIATYYCKQSYILRTFGGGTKVEIKR
notes: a Fab; also called h26H8 Fab; h26H8
Kd (Cyno CD3εδ): 36 nM | koff (Cyno CD3εδ): 0.031 s⁻¹ | kon (Cyno CD3εδ): 870000 M⁻¹ s⁻¹ | Kd [2]: 51.6 nM | koff [2]: 0.0322 s⁻¹ | kon [2]: 623000 M⁻¹ s⁻¹

B4: H26H8 Fab H35F (Fab, V domains shown)
VH: B3 VH with H35F
VL: B3 VL
notes: Fab' fragment; phenylalanine at position 35 of the heavy chain variable domain; also called h26H8 H35F; h26H8 H35F Fab'
binding result [3]: no binding (tested: 300 nM)

B5: H26H8 Fab H35Y (Fab, V domains shown)
VH: B3 VH with H35Y
VL: B3 VL
notes: Fab' fragment; tyrosine at position 35 of the heavy chain variable domain; also called h26H8 H35Y; h26H8 H35Y Fab'
binding result [4]: no binding (tested: 300 nM)

B6: H26H8 Fab Y33S (Fab, V domains shown)
VH: B3 VH with Y33S
VL: B3 VL
notes: Fab' fragment; serine at position 33 of the heavy chain variable domain; also called h26H8 Y33S; h26H8 Y33S Fab'
binding result [5]: no binding (tested: 300 nM)

Further lines, results first:

koff [1]: 0.0034 s⁻¹ | kon [1]: 1.12e+07 M⁻¹ s⁻¹
B1: antibody 3F11 (antibody, V domains shown)
VH: QVQLQQSGPDLVRPGASVKMSCKASGYTFTNYYVHWLNQRPGQGLEWIGWIYPGDGSTKFNEKFKGKTTLTADKSSSTAYILLSSLTSADSAIYFCTRDAGYYFDVWGAGTTVTVSS
VL: B2 VL with M21I, S32N
notes: Tested as mouse hybridoma antibody (culture supernatant or mAb); also called Clone 3F11

Kd [6]: 116 nM | koff [6]: 0.0658 s⁻¹ | kon [6]: 569000 M⁻¹ s⁻¹
B7: H26H8 Fab C53S (Fab, V domains shown)
VH: B3 VH with C53S
VL: B3 VL
notes: Fab' fragment; serine at position 53 of the heavy chain variable domain; also called h26H8 C53S
